Positions count from the first letter of the chain named.
T1: monkey LAG-3 on cells (HEK293-cLAG-3 stable cell line) (monkey, UniProt P18627 24-525 (human entry))
T1 construct: Full-length monkey (Chinese monkey) LAG-3 gene expressed on HEK293 cells
T1 chain: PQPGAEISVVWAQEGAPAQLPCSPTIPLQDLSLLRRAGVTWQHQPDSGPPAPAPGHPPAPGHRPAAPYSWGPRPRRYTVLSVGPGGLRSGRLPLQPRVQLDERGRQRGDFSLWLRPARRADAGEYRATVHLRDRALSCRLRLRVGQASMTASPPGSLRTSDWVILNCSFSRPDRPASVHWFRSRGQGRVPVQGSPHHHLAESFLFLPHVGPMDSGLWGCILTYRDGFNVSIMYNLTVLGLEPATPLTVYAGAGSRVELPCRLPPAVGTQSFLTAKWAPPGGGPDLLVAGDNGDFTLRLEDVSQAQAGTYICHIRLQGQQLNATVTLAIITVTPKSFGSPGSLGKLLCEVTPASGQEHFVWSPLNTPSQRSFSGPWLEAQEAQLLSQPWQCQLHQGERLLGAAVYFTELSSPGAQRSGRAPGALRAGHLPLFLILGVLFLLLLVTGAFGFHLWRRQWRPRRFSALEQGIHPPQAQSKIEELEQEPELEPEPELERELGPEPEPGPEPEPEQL

T2: mouse LAG-3 protein with hFc tag (mLAG-3-hFc protein) (mouse; human, UniProt Q61790 24-442)
T2 construct: Made in HEK293 cells; also called mouse LAG-3 extracellular domain protein; not shown: human IgG Fc fragment (hFc) of the pCpC vector
T2 sequence: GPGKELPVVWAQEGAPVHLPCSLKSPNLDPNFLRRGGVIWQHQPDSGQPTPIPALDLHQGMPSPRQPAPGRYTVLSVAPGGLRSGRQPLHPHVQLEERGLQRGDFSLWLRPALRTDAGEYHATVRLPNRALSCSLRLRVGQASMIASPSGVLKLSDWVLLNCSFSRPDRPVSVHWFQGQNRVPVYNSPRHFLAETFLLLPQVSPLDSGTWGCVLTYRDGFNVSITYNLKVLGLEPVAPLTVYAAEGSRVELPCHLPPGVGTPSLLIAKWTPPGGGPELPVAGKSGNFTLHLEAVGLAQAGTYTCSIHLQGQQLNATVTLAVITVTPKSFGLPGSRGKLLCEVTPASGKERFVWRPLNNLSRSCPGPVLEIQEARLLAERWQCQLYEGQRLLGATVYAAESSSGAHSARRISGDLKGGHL

B1: 556F6B8 mouse-human chimeric antibody (antibody, V domains shown)
VH: RVQLKQSGPGLVQPSQSLSITCTVSGFSLIKYGVHWVRQSPGEGLEWLGVIWRGGITDYNAAFMSRLSITKDNSKSQVFFKMNSLQADDTAIYYCAKWDGPLAMDYWGQGTSVTVSS
VL: DIVMTQSHKFLSTSVGDRVSITCKASQDVGTTVAWYQQKPGQSPKLLIYWASTRHTGVPDRFTGSGSGTDFTLTISNVQSEDLADYFCQQYSSYPYTFGGGTKLEIK
notes: also called mAb123-556F6B8; 556F8B8
B2: 105F1E10 mouse-human chimeric antibody (antibody, V domains shown)
VH: EVQLQQSGPELVKPGASVKMSCRASGYTFTDFKMHWMKQSHGKSLEWIGYIAPNNGGTAYNQKFRGKATLTVNESSNTAYMELRSLTSEDSAVYYCVDWDDVDYWGQGTTLTVSS
VL: DIKMTQSPSSMYASLGERVTITCKASQDINSYLSWFQQKSGKSPKTLIYRANRLVDGVPSRFSGSGSGQDYSLTISSLEYEDMGIYYCLQYVEFPLTFGAGTKLELK
notes: also called mAb009-105F1E10
B3: 405B8H3 mouse-human chimeric antibody (antibody, V domains shown)
VH: QVQLQQSGAELVRPGASVTLSCKASGYTFTDYEMHWVKQTPVHGLEWIGATDPETGNSAYNQKFKGKAIMTADKSSSTAYMELRSLTSEDSAVYYCISTGWNDWGQGTSLTVSS
VL: B2 VL with S40P, N52D, V55L, E81G, V92D, L96Y, A100G, L106I
notes: also called mAb103-405B8H3
B4: 409D4E10 mouse-human chimeric antibody (antibody, V domains shown)
VH: B3 VH with Y27N, G56D, S58T, M70L, A72T, S98T, T99S
VL: B2 VL with S40P, V55L, V92N, L96Y, A100G, L106I
notes: also called mAb112-409D4E10
B5: 409B11E12 mouse-human chimeric antibody (antibody, V domains shown)
VH: B3 VH with P41T, G56S, N57Y, M70L, S98A
VL: B2 VL with I2L, S40P, V55L, V92D, L96Y, A100G, L106I
notes: also called mAb104-409B11E12
B6: 556F6B8 (LAG-3 mouse-human chimeric antibody) (antibody, V domains shown)
VH: B1 VH
VL: B1 VL
notes: also called 556F8B8
B7: 105F1E10 (LAG-3 mouse-human chimeric antibody) (antibody, V domains shown)
VH: B2 VH
VL: B2 VL
B8: 405B8H3 (LAG-3 mouse-human chimeric antibody) (antibody, V domains shown)
VH: B3 VH
VL: B2 VL with S40P, N52D, V55L, E81G, V92D, L96Y, A100G, L106I
notes: also called mouse-human chimeric antibody 405B8H3
B9: 409D4E10 (LAG-3 mouse-human chimeric antibody) (antibody, V domains shown)
VH: B3 VH with Y27N, G56D, S58T, M70L, A72T, S98T, T99S
VL: B2 VL with S40P, V55L, V92N, L96Y, A100G, L106I
B10: 409B11E12 (LAG-3 mouse-human chimeric antibody) (antibody, V domains shown)
VH: B3 VH with P41T, G56S, N57Y, M70L, S98A
VL: B2 VL with I2L, S40P, V55L, V92D, L96Y, A100G, L106I

Target: T1, monkey LAG-3 on cells (HEK293-cLAG-3 …)
Assay: FACS, HEK293-cLAG-3, antibody 0.064 nM
Text: The pIRES plasmid with the monkey-derived full-length gene was transfected into the HEK293 cell line to construct a HEK293 stable cell line containing monkey LAG-3 (herein referred to as HEK293-cLAG-3 stable cell line). The HEK293-hLAG-3 stable cell line and HEK293-cLAG-3 stable cell line were expanded in a T-75 cell culture flask to a 90% confluence. The medium was aspirated, and the cells were washed with HBSS (Hanks' Balanced Salt Solution) 1-2 times, then treated with a enzyme-free cell dissociation fluid (Versene solution: Life technology) and the cells were collected. The cells were washed with HBSS buffer for 1-2 times. After counted, the cells were diluted with HBSS to 1-2×10⁶ cells per ml, added with 1% goat serum blocking solution, incubated on ice for 20-30 minutes, and then washed with HBSS for 2 times by centrifugation. The collected cells were suspended in the FACS buffer (HBSS+1% BSA) to 2×10⁶ cells/ml, added as 100 microliters per well to a 96-well FACS reaction plate, added with 100 microliters per well of the antibody sample to be tested, incubated on ice for 1-2 hours. The plate was washed twice with the FACS buffer by centrifugation, added with 100 microliters of fluorescent (Alexa 488)-labeled secondary antibodies per well, and incubated on ice for 0.5-1.0 hours. The plate was washed 2-3 times with FACS buffer by centrifugation, added with 100 μl fixative solution (4% Paraformaldehyde) per well to suspend the cells. 5-10 minutes later, it was washed 1-2 times with FACS buffer by centrifugation. The cells were suspended with 100 microliters of FACS buffer, FACS (FACSCalibur, BD) was used for detection and the results were analyzed.

Row | Binder | Mean fluorescence intensity
1 | B1 | 4.45
2 | B2 | 3.54
3 | B3 | 4.8
4 | B4 | 4.42
5 | B5 | 4.95

Target: T2, mouse LAG-3 protein with hFc tag …
Assay: ELISA, mLAG-3-hFc coated; 0.6667 nM
Protocol: The plate was sealed with plastic film and incubated overnight at 4° C. The plate was washed 2 times with the plate washing solution (PBS+0.01% Tween20) on the next day, and added with the blocking solution (PBS+0.01% Tween20+1% BSA) and blocked at room temperature for 1-2 hours. The blocking solution was poured out, and the plate was added with 50-100 μl of the antibody sample to be tested to each well, incubated at 37° C. for 1-2 hours, and washed 2-3 times with a plate washing solution (PBS+0.01% Tween20). HRP (horseradish peroxidase) labeled secondary antibody was added, and the plate was incubated at 37° C. for 1-2 hours, and washed 2-3 times with a plate washing solution (PBS+0.01% Tween20). 100 μl of TMB substrate was added to each well. After incubated at room temperature for 15-30 minutes, the plate was added with 100 μl of stop solution (1.0N HCl) to each well.

Row | Binder | OD450 [OD450]
6 | B6 | 0.15
7 | B7 | 0.09
8 | B8 | 0.11
9 | B9 | 0.11
10 | B10 | 0.1
